Source: the Immune Epitope Database (IEDB)
Each block holds one sequence with its values, some of them ahead of it.

Key:
HLA-A*02:02 = assay: IEDB peptide-MHC binding, purified MHC/competitive/radioactivity; filed as Kd, often an IC50 or EC50 that approximates it; ≥ and ≤ were set here for values at or beyond the usual limits of such assays
HLA-A*02:03 = assay: as above
HLA-A*02:06 = assay: as above
HLA-A*68:02 = assay: as above
HLA-B*18:01 = assay: as above
HLA-B*40:01 = assay: as above
HLA-B*40:02 = assay: as above
HLA-B*44:02 = assay: as above
HLA-B*44:03 = assay: as above
HLA-B*45:01 = assay: as above
HLA-A*02:01 [1] = assay: as above
HLA-A*03:01 = assay: as above; details: source organism: Vaccinia virus WR
HLA-A*11:01 = assay: as above; details: source organism: Vaccinia virus WR
HLA-A*31:01 = assay: as above; details: source organism: Vaccinia virus WR
HLA-A*33:01 = assay: as above; details: source organism: Vaccinia virus WR
HLA-A*68:01 = assay: as above; details: source organism: Vaccinia virus WR
HLA-B*07:02 = assay: as above; details: source organism: Vaccinia virus WR
HLA-B*35:01 = assay: as above; details: source organism: Vaccinia virus WR
HLA-B*51:01 = assay: as above; details: source organism: Vaccinia virus WR
HLA-B*53:01 = assay: as above; details: source organism: Vaccinia virus WR
HLA-B*54:01 = assay: as above; details: source organism: Vaccinia virus WR
HLA-A*02:01 [2] = assay: IEDB peptide-MHC binding, purified MHC/competitive/fluorescence; ≥ and ≤ were set here for values at or beyond the usual limits of such assays; details: source organism: Sudan ebolavirus
HLA-A*24:02 = assay: as above; details: source organism: Sudan ebolavirus
HLA-A*01:01 = assay: IEDB peptide-MHC binding, purified MHC/competitive/radioactivity; filed as Kd, often an IC50 or EC50 that approximates it; ≥ and ≤ were set here for values at or beyond the usual limits of such assays; details: source organism: Dengue virus 3 Martinique/1243/1999
[3] = source organism: Trypanosoma cruzi
[4] = source organism: Mammarenavirus whitewaterense
[5] = source organism: Vaccinia virus WR
[6] = source organism: Hepatitis C virus (isolate BK)
[7] = source organism: Dengue virus 3 Martinique/1243/1999
[8] = source organism: Dengue virus 2 Jamaica/1409/1983
[9] = source organism: Lassa virus Josiah
[10] = source organism: SARS coronavirus Tor2
[11] = source organism: Mammarenavirus machupoense
[12] = source organism: Lassa virus GA391
[13] = source organism: Mammarenavirus guanaritoense

Sequence: ELLRPTTLV
Kd (HLA-A*02:02; [3]): 4.03 µM | Kd (HLA-A*02:03; [3]): 1.39 µM | Kd (HLA-A*02:06; [3]): 2.08 µM | Kd (HLA-A*68:02; [3]): 0.087 µM

Sequence: SDHLISEIL
Kd (HLA-B*18:01; [4]): ≥ 77.5 µM | Kd (HLA-B*40:01; [4]): 8.52 µM | Kd (HLA-B*40:02; [4]): 0.0831 µM | Kd (HLA-B*44:02; [4]): 9.12 µM | Kd (HLA-B*44:03; [4]): ≥ 78.1 µM | Kd (HLA-B*45:01; [4]): 1.66 µM

Sequence: TLNHVLALK
Kd (HLA-A*02:01 [1]; [5]): ≥ 78.1 µM | Kd (HLA-A*02:02; [5]): ≥ 77.8 µM | Kd (HLA-A*02:03; [5]): 0.281 µM | Kd (HLA-A*02:06; [5]): 14.1 µM | Kd (HLA-A*03:01): 0.00247 µM | Kd (HLA-A*11:01): 0.00128 µM | Kd (HLA-A*31:01): 0.0361 µM | Kd (HLA-A*33:01): 0.656 µM | Kd (HLA-A*68:01): 0.00417 µM | Kd (HLA-A*68:02; [5]): ≥ 76.9 µM | Kd (HLA-B*07:02): ≥ 77.5 µM | Kd (HLA-B*35:01): 10.4 µM | Kd (HLA-B*51:01): ≥ 77.5 µM | Kd (HLA-B*53:01): ≥ 78.2 µM | Kd (HLA-B*54:01): ≥ 78.1 µM

Sequence: QVMLLVLCV
Kd (HLA-A*68:02; source organism: Dengue virus 2 Peru/IQT2913/1996): 0.143 µM

Sequence: CVNGVCWTV
Kd (HLA-A*02:01 [1]; [6]): 1.02 µM | Kd (HLA-A*02:02; [6]): 1.04 µM | Kd (HLA-A*02:03; [6]): 2.08 µM | Kd (HLA-A*02:06; [6]): 2.67 µM | Kd (HLA-A*68:02; [6]): 0.948 µM

Sequence: LTVAWRTATL
Kd (HLA-A*68:02; [7]): 0.0324 µM

Sequence: VVIAILTVV
Kd (HLA-A*02:03; [8]): 0.0338 µM | Kd (HLA-A*02:06; [8]): 0.0136 µM | Kd (HLA-A*68:02; [8]): 0.347 µM

Sequence: REPTDLKQF
Kd (HLA-B*18:01; [9]): ≥ 55.4 µM | Kd (HLA-B*40:01; [9]): 2.88 µM | Kd (HLA-B*40:02; [9]): 1 µM | Kd (HLA-B*44:02; [9]): 1.51 µM | Kd (HLA-B*44:03; [9]): 8.46 µM | Kd (HLA-B*45:01; [9]): ≥ 77.7 µM

Sequence: YEAMYTPHT
Kd (HLA-B*18:01; [10]): 2.8 µM | Kd (HLA-B*40:01; [10]): 14.4 µM | Kd (HLA-B*40:02; [10]): 0.242 µM | Kd (HLA-B*44:02; [10]): ≥ 21.8 µM | Kd (HLA-B*44:03; [10]): 13 µM | Kd (HLA-B*45:01; [10]): 0.149 µM

Sequence: TTGRLIWTL
IC50 (HLA-A*02:01 [2]): 2 µM | IC50 (HLA-A*24:02): 0.309 µM

Sequence: DKLVDPINY
Kd (HLA-B*18:01; source organism: Variola virus): ≥ 77.5 µM | Kd (HLA-B*40:01; source organism: Variola virus): 15.5 µM | Kd (HLA-B*40:02; source organism: Variola virus): ≥ 77.2 µM | Kd (HLA-B*44:02; source organism: Variola virus): ≥ 77.9 µM | Kd (HLA-B*44:03; source organism: Variola virus): ≥ 78.1 µM | Kd (HLA-B*45:01; source organism: Variola virus): ≥ 77.7 µM

Sequence: FANYGFTLA
Kd (HLA-A*02:01 [1]; [3]): 1.5 µM | Kd (HLA-A*02:02; [3]): 1.98 µM | Kd (HLA-A*02:03; [3]): 0.0462 µM | Kd (HLA-A*02:06; [3]): 0.000447 µM | Kd (HLA-A*68:02; [3]): 1.64 µM

Sequence: YSIPATLLV
Kd (HLA-A*01:01): 0.941 µM | Kd (HLA-A*02:06; [7]): 0.0102 µM | Kd (HLA-A*68:02; [7]): 0.0169 µM

Sequence: EEVLDVCPLG
Kd (HLA-B*18:01; [11]): 4.84 µM | Kd (HLA-B*40:01; [11]): 14.2 µM | Kd (HLA-B*40:02; [11]): 9.75 µM | Kd (HLA-B*44:02; [11]): ≥ 70.2 µM | Kd (HLA-B*44:03; [11]): ≥ 51.1 µM | Kd (HLA-B*45:01; [11]): 4.44 µM

Sequence: GVSWMIRILI
Kd (HLA-A*68:02; source organism: Dengue virus 4 Dominica/814669/1981): 0.197 µM

Sequence: NTYLFNILY
Kd (HLA-A*02:01 [1]; [5]): 0.946 µM | Kd (HLA-A*02:02; [5]): 1.57 µM | Kd (HLA-A*02:03; [5]): 1.55 µM | Kd (HLA-A*02:06; [5]): 6.11 µM | Kd (HLA-A*03:01): 0.625 µM | Kd (HLA-A*11:01): 0.263 µM | Kd (HLA-A*31:01): 0.688 µM | Kd (HLA-A*33:01): 1.48 µM | Kd (HLA-A*68:01): 0.722 µM | Kd (HLA-A*68:02; [5]): 7.35 µM | Kd (HLA-B*07:02): ≥ 29.2 µM | Kd (HLA-B*35:01): 10.5 µM | Kd (HLA-B*51:01): 17.7 µM | Kd (HLA-B*53:01): 5.69 µM | Kd (HLA-B*54:01): 1.43 µM

Sequence: LLHGLDFSEV
Kd (HLA-A*02:01 [1]; [12]): 0.0658 µM | Kd (HLA-A*02:02; [12]): 0.117 µM | Kd (HLA-A*02:03; [12]): 0.00357 µM | Kd (HLA-A*02:06; [12]): 0.0712 µM | Kd (HLA-A*68:02; [12]): ≥ 5 µM

Sequence: AEFTFQLNL
Kd (HLA-B*18:01; [13]): 5.93 µM | Kd (HLA-B*40:01; [13]): 0.0661 µM | Kd (HLA-B*40:02; [13]): 0.000946 µM | Kd (HLA-B*44:02; [13]): 0.0599 µM | Kd (HLA-B*44:03; [13]): 0.0508 µM | Kd (HLA-B*45:01; [13]): 0.21 µM

Kd (HLA-A*02:01 [1]; source organism: Homo sapiens): ≥ 83.4 µM | Kd (HLA-A*02:06; source organism: Homo sapiens): ≥ 109 µM | Kd (HLA-A*68:02; source organism: Homo sapiens): 17.6 µM
Sequence: DLKDLEAHI
